Data on 25 sequences can be found in the supplement of paper PMC9732359.

± gives the uncertainty stated by the source.

This data set in a line: protein stability index of a GFP-peptide fusion (yeast GPS) (PSI 1-4); higher = more stable; sorted into four equal gates, so the index is relative within each strain. The essentials: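 Tiled yeast protein peptides of 17 residues were each joined downstream of GFP, on plasmids that also express Cherry. The pooled library was maintained in yeast, and mid-log cultures in leucine-free medium were sorted into four equal gates on the GFP/Cherry ratio. Plasmids from every gate were amplified by PCR and sequenced on Illumina, with barcodes linking reads to strains. The protein stability index of a peptide is its gate-number-weighted read frequency summed over the gates.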

Consider HNKLNITSDALEGITTT [SMC3], for which the protein stability index is, setting by setting: (doa10∆) 3.19 ± 0.16; (pdr5∆) 3.09 ± 0.15; (san1∆) 3.03 ± 0.092; (ubr1∆) 3.1 ± 0.092.
On to PDENHDNTSHDEQDDDN [BRN1], for which the protein stability index by setting is: (doa10∆) 3.11 ± 0.1; (pdr5∆) 3.2 ± 0.095; (san1∆) 3.05 ± 0.12; (ubr1∆) 3.11 ± 0.1.
Turning to FGKTGDQKETKKGESEK [YOR098C/NUP1], the protein stability index came out at 3.4 ± 0.1 (doa10∆), 3.4 ± 0.11 (pdr5∆), 3.45 ± 0.076 (san1∆) and 3.35 ± 0.061 (ubr1∆).
NGKEVPLAKIYLEENKS [MED1]: the protein stability index is, setting by setting: (doa10∆) 3.2 ± 0.1; (pdr5∆) 3.27 ± 0.071; (san1∆) 3.12 ± 0.075; (ubr1∆) 3.21 ± 0.063.
With NLDSSITQDGKFAYKID [YMR129W/POM152], the protein stability index (doa10∆) came out at 2.38 ± 0.065, the protein stability index (pdr5∆) came to 2.69 ± 0.064, the protein stability index (san1∆) was found to be 2.26 ± 0.08 and the protein stability index (ubr1∆) stood at 2.71 ± 0.05.
With LVYDVKGRFAVHRITDE [RPS4A], the protein stability index was 3.25 ± 0.078 (doa10∆), 3.08 ± 0.11 (pdr5∆), 3.46 ± 0.07 (san1∆) and 3.29 ± 0.068 (ubr1∆).
On to ILSDSPLELSAPIGKHY [DIS3], for which the protein stability index was 1.71 ± 0.13 (doa10∆) and 2.39 ± 0.17 (ubr1∆).
Regarding STGDYTFTIQLLKLTKV [YML103C/NUP188], the protein stability index (doa10∆) was 1.58 ± 0.075, the protein stability index (pdr5∆) amounted to 2.92 ± 0.13, the protein stability index (san1∆) stood at 2.16 ± 0.12 and the protein stability index (ubr1∆) was 2.51 ± 0.11.
VAGGKKALAIFVPVPSL [RPS7A]: the protein stability index is 2.49 ± 0.056 (doa10∆), 1.53 ± 0.047 (pdr5∆), 1.7 ± 0.088 (san1∆) and 1.54 ± 0.043 (ubr1∆).
For AMIALSMILIQQTEKLN [RPN2] the same measures were 1.32 ± 0.077, 1.35 ± 0.066, 1.45 ± 0.14 and 1.6 ± 0.064.
On to VVEGVTFVVEQLIKQSI [SNU114], for which the protein stability index by setting is: (doa10∆) 2.52 ± 0.076; (pdr5∆) 2.6 ± 0.095; (san1∆) 3.44 ± 0.098; (ubr1∆) 2.85 ± 0.067.
Consider TKFLAKNGVIPEESKGS [SWP82], for which the protein stability index (doa10∆) came to 3.19 ± 0.096, the protein stability index (pdr5∆) amounted to 3.16 ± 0.11, the protein stability index (san1∆) turned out to be 2.98 ± 0.15 and the protein stability index (ubr1∆) was 3.45 ± 0.13.
As to MASRVDETTVPSYYYYV [ROX3], the protein stability index was found to be 1.48 ± 0.07 (doa10∆), 2.24 ± 0.05 (pdr5∆), 1.94 ± 0.096 (san1∆) and 1.94 ± 0.069 (ubr1∆).
KASTYGELVLDIEVPDV [SNF12]: the protein stability index amounted to 2.61 ± 0.058 (doa10∆), 2.28 ± 0.051 (pdr5∆), 2.13 ± 0.075 (san1∆) and 1.87 ± 0.045 (ubr1∆).
For VDIVNQWFLQYQNQFVE [YML103C/NUP188], the protein stability index runs as follows: (doa10∆) 1.79 ± 0.055; (pdr5∆) 2.1 ± 0.054; (san1∆) 1.81 ± 0.065; (ubr1∆) 2.29 ± 0.042.
On to EKELKIFTDAGRVYRPL [RPB2], for which the protein stability index (doa10∆) is 3.04 ± 0.067, the protein stability index (pdr5∆) was determined as 3.44 ± 0.082, the protein stability index (san1∆) was 3.09 ± 0.063 and the protein stability index (ubr1∆) was found to be 3.34 ± 0.042.
For HGKPTKGSSLASAASEA [SSN8] the same measures were 1.95 ± 0.08, 2.42 ± 0.068, 2.19 ± 0.088 and 2.73 ± 0.032.
Take NVKNDVSFNDSQSMVTN [YIL149C/MLP2]: the protein stability index runs as follows: (doa10∆) 3.1 ± 0.054; (pdr5∆) 3.37 ± 0.081; (san1∆) 3.07 ± 0.067; (ubr1∆) 3.3 ± 0.04.
For SQFNGSGNGSNPNTNTN [PGD1] the same measures were 2.48 ± 0.072, 2.68 ± 0.068, 2.84 ± 0.076 and 2.89 ± 0.034.
Consider KLHMGTEDVRLAPELNQ [RPL31B], for which the protein stability index by setting is: (doa10∆) 2.81 ± 0.061; (pdr5∆) 3 ± 0.067; (san1∆) 2.86 ± 0.049; (ubr1∆) 3.05 ± 0.04.
Sequence AQDFINAYASFLQRQGK [RPS19A] displayed a protein stability index (doa10∆) of 2.91 ± 0.061, a protein stability index (pdr5∆) of 3.07 ± 0.064, a protein stability index (san1∆) of 3.01 ± 0.06 and a protein stability index (ubr1∆) of 3 ± 0.046.
With VKKLEIQQHARYDCSFC [RPL43A], the protein stability index (doa10∆) came out at 2.73 ± 0.11, the protein stability index (pdr5∆) was 2.87 ± 0.092, the protein stability index (san1∆) amounted to 2.96 ± 0.068 and the protein stability index (ubr1∆) came to 3.3 ± 0.092.
For the sequence RILKNVSPNDNNSANNN [YMR153W/NUP53], the protein stability index (doa10∆) worked out at 2.75 ± 0.052, the protein stability index (pdr5∆) worked out at 2.42 ± 0.048, the protein stability index (san1∆) is 2.29 ± 0.054 and the protein stability index (ubr1∆) is 2.59 ± 0.044.
For the sequence TPAPKISYKKGAASNRT [RPL36A], the protein stability index runs as follows: (doa10∆) 2.98 ± 0.072; (pdr5∆) 3.22 ± 0.06; (san1∆) 3.17 ± 0.058; (ubr1∆) 3.1 ± 0.042.
Taken in the same sequence, the figures for MGVPIYGIVAMAATATD [FAS2] were 1.34 ± 0.068, 1.52 ± 0.052, 1.54 ± 0.089 and 1.47 ± 0.051.
